Measured values: US20090202533A1 (CSL, published 2009)

T1: murine IL-11R on Ba/F3 cells stably transfected with murine IL-11R/gp130 (murine, UniProt Q64385 24-432)
T1 sequence (looked up): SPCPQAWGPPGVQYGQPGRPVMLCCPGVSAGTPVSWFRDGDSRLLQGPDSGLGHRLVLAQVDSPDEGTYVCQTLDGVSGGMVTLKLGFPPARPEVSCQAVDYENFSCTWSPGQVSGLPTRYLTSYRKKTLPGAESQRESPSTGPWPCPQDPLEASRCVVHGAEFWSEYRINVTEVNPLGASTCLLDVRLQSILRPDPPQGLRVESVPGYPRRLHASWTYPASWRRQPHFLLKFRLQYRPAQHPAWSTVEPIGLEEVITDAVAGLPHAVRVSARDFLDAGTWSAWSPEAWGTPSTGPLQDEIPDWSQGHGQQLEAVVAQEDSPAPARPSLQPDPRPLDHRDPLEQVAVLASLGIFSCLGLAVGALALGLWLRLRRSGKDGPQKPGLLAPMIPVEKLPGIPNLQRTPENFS


Experiments:
IL-11R-Fc [1] = experiment: competition ELISA on IL-11R-Fc
[2] = target: T1, murine IL-11R on Ba/F3 cells stably …; experiment: cell-based or functional assay
IL-11R-Fc [3] = experiment: IL-11R binding ELISA

Molecule	fold higher binding affinity than murine W147A IL-11 (IL-11R-Fc [1]) [fold]	ability to antagonize IL-11-induced Ba/F3 cell proliferation, relative to non-PEGylated mutein [2] [fold]	fold reduction of binding affinity relative to non-PEGylated mutein (IL-11R-Fc [3]) [fold]
IL-11 mutein of SEQ ID NO: 1 (AMSAG at positions 58-62 of mature murine IL-11 replaced with PAIDY, tryptophan at position 147 replaced with alanine), N-terminal His-tagged (from UniProt P47873 22-199) (ligand)	20		
PEGylated mutein (mutein of SEQ ID NO: 3 with a single 40 kDa PEG moiety on the Cys introduced at position 147) (ligand, mPEG2-maleimide (single 40 kDa PEG moiety) on the Cys introduced at position 147 (position as printed, numbering of mature murine IL-11)) VSSDPRADLDSAVLLTRSLLADTRQLAAQMRDKFPADGDHSLDSLPTLPAIDYTLGSLQLPGVLTRLRVDLMSYLRHVQWLRRAGGPSLKTLEPELGALQARLERLLRRLQLLMSRLALPQAAPDQPVIPLGPPASACGSIRAAHAILGGLHLTLDWAVRGLLLLKTRL		~10	5
